Test results from the Human Domainome abundance scans (Beltran et al. 2025).
± gives the uncertainty stated by the source.

B1: Zinc finger MYM-type protein 2, residues 463 to 506; numbered along this chain, Q9UBW7 (parent)
chain: IMNCCEQCGEYLPSKGAGNNVLVIDGQQKRFCCQSCVSEYKQVG

Variants of: B1
Assay: abundance fitness (aPCA) (normalised: wild type 0, dead -1); higher = more abundant; growth selection in yeast, the domain comes from the species named
Details: Homo sapiens

Variant | abundance fitness
IMNCTEQCGEYLPSKGAGNNVLVIDGQQKRFCCQSCVSEYKQVG [C5T] | -0.587 ± 0.13
IMNCIEQCGEYLPSKGAGNNVLVIDGQQKRFCCQSCVSEYKQVG [C5I] | -1.08 ± 0.2
IMNCLEQCGEYLPSKGAGNNVLVIDGQQKRFCCQSCVSEYKQVG [C5L] | -0.922 ± 0.12
IMNCWEQCGEYLPSKGAGNNVLVIDGQQKRFCCQSCVSEYKQVG [C5W] | -1.5 ± 0.12
IMNCCECCGEYLPSKGAGNNVLVIDGQQKRFCCQSCVSEYKQVG [Q7C] | -0.034 ± 0.14
IMNCCEWCGEYLPSKGAGNNVLVIDGQQKRFCCQSCVSEYKQVG [Q7W] | -0.214 ± 0.091
IMNCCENCGEYLPSKGAGNNVLVIDGQQKRFCCQSCVSEYKQVG [Q7N] | -0.436 ± 0.27
IMNCCEVCGEYLPSKGAGNNVLVIDGQQKRFCCQSCVSEYKQVG [Q7V] | -0.288 ± 0.082
IMNCCERCGEYLPSKGAGNNVLVIDGQQKRFCCQSCVSEYKQVG [Q7R] | -0.019 ± 0.08
IMNCCEECGEYLPSKGAGNNVLVIDGQQKRFCCQSCVSEYKQVG [Q7E] | -0.26 ± 0.094
IMNCCEGCGEYLPSKGAGNNVLVIDGQQKRFCCQSCVSEYKQVG [Q7G] | -0.137 ± 0.073
IMNCCEACGEYLPSKGAGNNVLVIDGQQKRFCCQSCVSEYKQVG [Q7A] | -0.09 ± 0.089
IMNCCELCGEYLPSKGAGNNVLVIDGQQKRFCCQSCVSEYKQVG [Q7L] | -0.226 ± 0.076
IMNCCEMCGEYLPSKGAGNNVLVIDGQQKRFCCQSCVSEYKQVG [Q7M] | -0.152 ± 0.1
IMNCCEKCGEYLPSKGAGNNVLVIDGQQKRFCCQSCVSEYKQVG [Q7K] | -0.135 ± 0.26
IMNCCEHCGEYLPSKGAGNNVLVIDGQQKRFCCQSCVSEYKQVG [Q7H] | -0.076 ± 0.12
IMNCCETCGEYLPSKGAGNNVLVIDGQQKRFCCQSCVSEYKQVG [Q7T] | -0.139 ± 0.13
IMNCCEDCGEYLPSKGAGNNVLVIDGQQKRFCCQSCVSEYKQVG [Q7D] | -0.466 ± 0.12
IMNCCEYCGEYLPSKGAGNNVLVIDGQQKRFCCQSCVSEYKQVG [Q7Y] | -0.222 ± 0.13
IMNCCEQCIEYLPSKGAGNNVLVIDGQQKRFCCQSCVSEYKQVG [G9I] | -0.417 ± 0.17

Variant | abundance fitness
IMNCCEQCQEYLPSKGAGNNVLVIDGQQKRFCCQSCVSEYKQVG [G9Q] | -0.067 ± 0.15
IMNCCEQCWEYLPSKGAGNNVLVIDGQQKRFCCQSCVSEYKQVG [G9W] | -0.442 ± 0.083
IMNCCEQCTEYLPSKGAGNNVLVIDGQQKRFCCQSCVSEYKQVG [G9T] | -0.018 ± 0.099
IMNCCEQCDEYLPSKGAGNNVLVIDGQQKRFCCQSCVSEYKQVG [G9D] | -0.671 ± 0.15
IMNCCEQCYEYLPSKGAGNNVLVIDGQQKRFCCQSCVSEYKQVG [G9Y] | 0.102 ± 0.15
IMNCCEQCAEYLPSKGAGNNVLVIDGQQKRFCCQSCVSEYKQVG [G9A] | -0.17 ± 0.082
IMNCCEQCFEYLPSKGAGNNVLVIDGQQKRFCCQSCVSEYKQVG [G9F] | -0.001 ± 0.17
IMNCCEQCEEYLPSKGAGNNVLVIDGQQKRFCCQSCVSEYKQVG [G9E] | -0.495 ± 0.11
IMNCCEQCREYLPSKGAGNNVLVIDGQQKRFCCQSCVSEYKQVG [G9R] | -0.436 ± 0.076
IMNCCEQCVEYLPSKGAGNNVLVIDGQQKRFCCQSCVSEYKQVG [G9V] | -0.563 ± 0.083
IMNCCEQCKEYLPSKGAGNNVLVIDGQQKRFCCQSCVSEYKQVG [G9K] | -0.511 ± 0.11
IMNCCEQCPEYLPSKGAGNNVLVIDGQQKRFCCQSCVSEYKQVG [G9P] | -0.68 ± 0.12
IMNCCEQCLEYLPSKGAGNNVLVIDGQQKRFCCQSCVSEYKQVG [G9L] | -0.289 ± 0.1
IMNCCEQCCEYLPSKGAGNNVLVIDGQQKRFCCQSCVSEYKQVG [G9C] | -0.148 ± 0.12
IMNCCEQCGEYEPSKGAGNNVLVIDGQQKRFCCQSCVSEYKQVG [L12E] | -0.004 ± 0.077
IMNCCEQCGEYNPSKGAGNNVLVIDGQQKRFCCQSCVSEYKQVG [L12N] | -0.482 ± 0.17
IMNCCEQCGEYMPSKGAGNNVLVIDGQQKRFCCQSCVSEYKQVG [L12M] | -0.46 ± 0.14
IMNCCEQCGEYKPSKGAGNNVLVIDGQQKRFCCQSCVSEYKQVG [L12K] | -0.312 ± 0.093
IMNCCEQCGEYPPSKGAGNNVLVIDGQQKRFCCQSCVSEYKQVG [L12P] | -0.14 ± 0.11
IMNCCEQCGEYDPSKGAGNNVLVIDGQQKRFCCQSCVSEYKQVG [L12D] | -0.174 ± 0.11

Variant | abundance fitness
IMNCCEQCGEYGPSKGAGNNVLVIDGQQKRFCCQSCVSEYKQVG [L12G] | -0.385 ± 0.068
IMNCCEQCGEYCPSKGAGNNVLVIDGQQKRFCCQSCVSEYKQVG [L12C] | -0.384 ± 0.11
IMNCCEQCGEYQPSKGAGNNVLVIDGQQKRFCCQSCVSEYKQVG [L12Q] | -0.294 ± 0.1
IMNCCEQCGEYAPSKGAGNNVLVIDGQQKRFCCQSCVSEYKQVG [L12A] | -0.246 ± 0.091
IMNCCEQCGQYLPSKGAGNNVLVIDGQQKRFCCQSCVSEYKQVG [E10Q] | -0.403 ± 0.092
IMNCCEQCGMYLPSKGAGNNVLVIDGQQKRFCCQSCVSEYKQVG [E10M] | -0.656 ± 0.13
IMNCCEQCGDYLPSKGAGNNVLVIDGQQKRFCCQSCVSEYKQVG [E10D] | -0.197 ± 0.1
IMNCCEQCGNYLPSKGAGNNVLVIDGQQKRFCCQSCVSEYKQVG [E10N] | -0.389 ± 0.14
IMNCCEQCGIYLPSKGAGNNVLVIDGQQKRFCCQSCVSEYKQVG [E10I] | -0.66 ± 0.28
IMNCCEQCGHYLPSKGAGNNVLVIDGQQKRFCCQSCVSEYKQVG [E10H] | -0.224 ± 0.27
IMNCCEQCGWYLPSKGAGNNVLVIDGQQKRFCCQSCVSEYKQVG [E10W] | -0.4 ± 0.13
IMNCCEQCGKYLPSKGAGNNVLVIDGQQKRFCCQSCVSEYKQVG [E10K] | -0.068 ± 0.15
IMNCCEQCGAYLPSKGAGNNVLVIDGQQKRFCCQSCVSEYKQVG [E10A] | -0.477 ± 0.12
IMNCCEQCGLYLPSKGAGNNVLVIDGQQKRFCCQSCVSEYKQVG [E10L] | -1.08 ± 0.15
IMNCCEQCGPYLPSKGAGNNVLVIDGQQKRFCCQSCVSEYKQVG [E10P] | -0.356 ± 0.17
IMNCCEQCGTYLPSKGAGNNVLVIDGQQKRFCCQSCVSEYKQVG [E10T] | -0.751 ± 0.12
IMNCCEQCGVYLPSKGAGNNVLVIDGQQKRFCCQSCVSEYKQVG [E10V] | -0.86 ± 0.1
IMNCCEQCGSYLPSKGAGNNVLVIDGQQKRFCCQSCVSEYKQVG [E10S] | -0.358 ± 0.14
